Paper PMC10441363 (bioRxiv, 2023)

B1: C05 IgG (antibody, V domains shown)
VH: QVQLQESGGGLVQPGESLRLSCVGSGSSFGESTLSYYAVSWVRQAPGKGLEWLSIINAGGGDIDYADSVEGRFTISRDNSKETLYLQMTNLRVEDTGVYYCAKHMSMQQVVSAGWERADLVGDAFDVWGQGTMVTVSS
VL: DIQLTQSPSSLSASVGDRVTLTCQASQDIRKFLNWYQQKPGKGPKLLIYDASNLQRGVPSRFSGGGSGTDFTLIISSLQPEDVGTYYCQQYDGLPFTFGGGTKVVIK
B2: S139\1 IgG (antibody, V domains shown)
VH: QVQLQQSGTELKKPGASVKISCKATGYTFSSYWIEWIKQRPGHGLEWIGEILPEIGMTNYNENFKGKATFTANTSSNTVYMQLSSLTSEDSAVYYCARPYDYSWFAYWGQGTLVTVSA
VL: DIVMTQSQKFMSTSVGDRVSVTCKASQNVDTNVAWYQEKPGQSPKTLIYSASNRYSGVPDRFTGSASGTDFTLTITNVQSEDLAEYFCQQYNSYPYTFGGGTKLEIK

Target: hemagglutinin (HA) of A/WSN/1933 (H1N1) (Influenza A virus A/WSN/1933 (H1N1), UniProt I4EPC4)
Experiment: virus aggregation by fluorescence microscopy

Sequence of hemagglutinin (HA) of A/WSN/1933 (H1N1) (P03454 18-565): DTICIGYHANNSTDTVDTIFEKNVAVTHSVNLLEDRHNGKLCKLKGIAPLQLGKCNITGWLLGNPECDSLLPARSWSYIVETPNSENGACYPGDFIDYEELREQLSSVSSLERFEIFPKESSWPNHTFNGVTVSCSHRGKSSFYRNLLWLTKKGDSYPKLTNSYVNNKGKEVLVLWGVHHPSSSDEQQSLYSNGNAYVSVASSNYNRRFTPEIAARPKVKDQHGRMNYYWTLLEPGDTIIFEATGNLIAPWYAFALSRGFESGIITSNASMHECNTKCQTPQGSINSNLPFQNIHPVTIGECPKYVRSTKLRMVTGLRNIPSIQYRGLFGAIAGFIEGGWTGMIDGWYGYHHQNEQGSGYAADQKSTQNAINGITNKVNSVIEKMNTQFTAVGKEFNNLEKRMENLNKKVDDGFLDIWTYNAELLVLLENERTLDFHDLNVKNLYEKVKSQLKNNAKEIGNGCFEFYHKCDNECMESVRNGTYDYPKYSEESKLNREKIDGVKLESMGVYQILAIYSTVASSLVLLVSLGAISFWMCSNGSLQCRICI

Row | Binder | binding result
1 | B1 | binds
2 | B2 | binds
